What was measured:
[1] = tested on: heptanedioyl-ACP; assay: Cell lysate in vitro thioesterase screen (DTNB, absorbance at 410 nm) on heptanedioyl-ACP; type: biochemical; details: 0.33 mM acyl-ACP substrate, 30° C., 30 min
[2] = tested on: heptanedioyl-ACP methyl ester; assay: Cell lysate in vitro thioesterase screen (DTNB, absorbance at 410 nm) on heptanedioyl-ACP methyl ester; type: biochemical; details: 0.33 mM acyl-ACP substrate, 30° C., 30 min
[3] = In vivo carboxylate reductase screening, substrate consumption by LC-MS, monomethyl heptanedioate; type: cell-based, Escherichia coli; details: 541 enzymes screened in vivo
Method: To screen carboxylate reductases in vivo, […] T7- pUC expression vectors was co-transformed into T7 Express lysY/Iq with the phosphopantetheinyl transferase sfp from Bacillus subtilis on a T7-pCDF expression vector. Biological duplicates of the resulting strains were incubated in 0.5 mL of terrific broth containing either 1 g/L heptanedioate or 1 g/L monomethyl heptanedioate and supplemented with 0.4 mM IPTG in 96-well deep well plates. The plates were incubated for 30 h at 30° C. in a shaking incubator. The cells were then pelleted, and culture supernatants from the same strains in media containing either heptanedioate or monomethyl heptanedioate were combined. The combined supernatants were analyzed by LC-MS to determine the concentration of heptanedioate and monomethyl heptanedioate. Carboxylate reductase activity on heptanedioate or monomethyl heptanedioate was reflected by consumption of the respective substrate in the medium.

| Molecule | activity toward heptanedioyl-ACP (hydrolysis) [1] | activity toward heptanedioyl-ACP methyl ester (hydrolysis) [2] | monomethyl heptanedioate activity [3] |
| --- | --- | --- | --- |
| SEQ ID NO: 183: Clostridium sp. CAG: 798 thioesterase (protein, Clostridium sp. CAG:798, Clostridium sp; CAG: 798 thioesterase) MAIIENKYHIGIKYVDKDRLLSLRGIILLFEDIACRHSDMVGYGINDVTKTHFSWVLLNWKIKVLSRINYGSIVTVKTWSRETSKLYTYRDFEIYDENNNLICIASSKWVLLSTETGHIIHITEEIKNAYLAENKTVFNESDLHKIVEPDNAEKTFSFTVRRRDIDINNHMNNLYYLDYALEALPEEVYSKFFNNVEIMYKYSAKLGETINCFYKEEEDGYYVMMKSATDNILHALVKLY | notable for their activity toward heptanedioyl-ACP |  |  |
| SEQ ID NO: 95: Aerococcus viridans ATCC 11563 thioesterase (protein, Aerococcus viridans ATCC 11563 = CCUG 4311, Aerococcus viridans ATCC 11563 thioesterase) MINIRHYQGGKRMGLLYQESVKVRHYHCNALGEMTLPAILDIMLIASNNQEATIPEAKEGFRQEGWAWIITQNQIDINRLPRYDEDIIAETEATTYNKFFSKRHYALKTRDGLVLAQAETTFALIDLNQRSIVRIPEIVAEWYQVEKEERPSRRKRLNKEIAVESKLDRFEVKFLDIDLNNHVNNTIYLRWITNSLGMEWFEKYTPTSFTVAYEKEMYLHQEGAVHSDISTVSEDLKSGDTFNSQHVIDSEDKAHCLTEITWQVK | notable for their activity toward heptanedioyl-ACP |  |  |
| SEQ ID NO: 88: Clostridium sulfidigenes thioesterase (protein, Clostridium sulfidigenes, Clostridium sulfidigenes thioesterase) MELNYKEQFTIKFHEGDFMGNVKLFTIMDYVQQVSEGHSQILGVDFQSMMNKGLFWVVSRVEITMERYPKVGEDITVETCLGGREKVFMKRRFKIKDKDGQVIGRVLIYYLIVDIETRLPQKPSMCPVDININVGDVIDNKLNKIKMPGEAIETVNRKLYYNDIDINNHVNNAKYISFIEDFFSLDWHRVKKISYMQLNFIKEIKFDDSLIMNKFIEDKESNSFCINGISEISEQEFFQCRLKF | notable for their activity toward heptanedioyl-ACP | notable for their activity toward heptanedioyl-ACP methyl ester |  |
| SEQ ID NO: 91: Cryptobacterium curtum thioesterase (protein, Cryptobacterium curtum (strain ATCC 700683 / DSM 15641 / 12-3), Cryptobacterium curtum thioesterase) MTISASLFLEKDYRLRTGDFDRYRRLHPTAVLDLFQDIGGLQAEMMGIGYDAMAAQDVFWAVVRTAYQVEHTPAEHEVVKVSTWPHSPSRYSFQRDYALRSTDGSLLVRGTSEWVLMDMNTRSLTSVLDYYHGSLDFIDERMFAKKLRKIRDFTEEGSGLSITPRYSDVDQNGHVNNARYASFVLDALDPSAAGSIASFQIDFRHEVIEGTPLVVFTQVEGKDIQAKGLDSNGEIKFACKITAQA | notable for their activity toward heptanedioyl-ACP | notable for their activity toward heptanedioyl-ACP methyl ester |  |
| SEQ ID NO: 185: Granulicatella elegans ATCC 700633 thioesterase (protein, Granulicatella elegans ATCC 700633, Granulicatella elegans ATCC 700633 thioesterase) MTVDVICQIERTILPYECDWKENLLLSQALGMMMLASRKQQQQLQNPNLIYEKGYTWIVIQHEIEIQRMPKVDEEVIIETQAISYNKFFTYREYRILSKEREELFKCITTFAMLDMKARKIVSIDEEVVLEYPLSIGKEMRKATRIPKKDFSDATTGEYKIRINDIDANLHVNNARYFDFAFSELGMEFIEDHQLKQVVIKYEKEVLPESTISCSTLWEENTLESQERRQTYHLISQDGNRCANIQMKWEEIV | notable for their activity toward heptanedioyl-ACP |  |  |
| SEQ ID NO: 182: Firmicutes bacterium CAG:449 thioesterase (protein, Firmicutes bacterium CAG:449, Firmicutes bacterium CAG:449 thioesterase) MNYYQKELVLQEKDFINDELSPYSILNYFQDIAGIHADKIGLSHEELIKNDLVWVVLRNKYEIIKMPSINQKVILKTWPHQKGKIDFDREYAIYDENNNLLIKGLSKWILMNYKTRRISMFNNIKYSFECLEETNFENKFNKIEDFDINNFSFIETTTSENDLDINGHVNNASYARIVLNNIDFDITINHFEINYIKEIKANQKLKIYYLKKDNTYYIKAFNNEEVIFVLIVY | notable for their activity toward heptanedioyl-ACP |  |  |
| SEQ ID NO: 184: [Clostridium] ultunense Esp thioesterase (protein, Clostridium ultunense Esp, [Clostridium] ultunense Esp thioesterase) MKATPLYIKDYKVEINHVDFKGDLKLSSLFTYCQDIAGLHAENLGMGREVLYTQHRVIWVLVRVRVDIIKYPKWKDILTLETWPQEPSRMGFDRDFLIKDKKGNILAKAVSTWVVIDVESRKLVRTKSVYTGYPLVVEKRAIDCKLGNLKSSGELETAYERTVRYSDIDVNEHLNNAKYLDFIMDSFSFEEHRRFNVKSVEISYSNEALLGETIKIYEDRSRIDSNIIYMEGIREGKDLVFKSQIEIEEK | notable for their activity toward heptanedioyl-ACP |  |  |
| SEQ ID NO: 215: Schizopora paradoxa carboxylate reductase (protein, listed as Schizopora paradoxa) MASTLLQDVSPAPPLMISPLEIPLPEPVDFSKQAVEVPGTRRPGQTGHYQNAVWGFKAFPEEGPVYTLPDVFELGLSLEKNGQTSNKPFLGHRPVISAEPLKFASDYVWSTYAEADERRQNVGSALEKYFRDGTLGGGEYQTVGIWSQNRAEWQIVELACHAYGKVSVSLYDTLGKDSVEYIIEHAHLTVIFVTSQHIPLLLAMASKVPMLKLIVSVDELSSEAKRIMGIWSRTANVQVMELSELEQFGKANRLNMARPIGKSLATICYTSGTTSGPKGVLLTHSNLVSSVKSNLRASHFGEKGGIMMSYLPLAHIYERITELCTMALGGQIGFFTGDPLRLLEDASILKPNFFPSVPRVLNRVYQSAMLAGQTPGLKGYLFRTAMDAKLKKLHETGDNTHMLWDRLVFRKIQALLGGNVELVSCGSAPISVDVMDFLKIAFSCDVIEGYGMTENCGTCTRCWPNDPSSSGTVGAPQPCNEIKLVDVPSMNYTSNDKPNPRGEVCLRGNNCFSTYYKDEKNTRETVDEEGWLHTGDVGEIDSAGRLKIIDRIKNIMKLAQGEYVALEKIENVYGLHPLVAQLYVHGESLQDHLVGVIVPDPTQFAILCNSIRGTKIGANDSAELATAARDPAVAQAVLREITHEAKKAALKGFEMIKKIHLTTVPFSTENGLLTPTFKVRRKDCSIYFKEELAALYAQPTSMLK |  |  | most monomethyl heptanedioate activity |
| SEQ ID NO: 187: Eggerthella sp. CAG:1427 thioesterase (protein, Eggerthella sp. CAG:1427, Eggerthella sp; CAG:1427 thioesterase) MTIGYEQTYQLRTGDFDRYAHLLPSSILDVFQDVAGVNAEQVPGMTWKELTDAGLFWVVTRIKYEVIETPHLHEQVIARTWPLAPTRLGFQREYTMRKLDGTPLVKCSSDWILMDYKTRSFASARDFYNGPQDFSEEKVFEKKLRKIKTFEPEDTGETFQVHFVDIDINGHVNNSKYPNFVMNSLDLGEDETIKTFQIDYRHELRAGSTVRIHSKRDGNVITSMGISTEGDTAGECMFATQIELA | notable for their activity toward heptanedioyl-ACP |  |  |
